The record followed here is patent US20230391876A1 (HANALL BIOPHARMA, published 2023).

The target in test [1] is T1, shFcRn (soluble human FcRn) (human, UniProt P55899 24-297; P61769 21-119).
T1 construct: extracellular domain; Printed only as 'soluble human FcRn'; also called hFcRn (immobilized on a chip)
The test can be described thus: SPR, hFcRn immobilized on chip, pH 7.4.
Experimental: (§1) Kinetic analysis was performed using a 1:1 Langmuir binding model, and the average KD value was obtained by repeating the analysis 6 times in each condition of pH 6.0 and pH 7.4.
(§2) Chip activation was performed under EDAC/NHS 0.5×, 30 μL/min, and 300 sec conditions. Thereafter, shFcRn was prepared at 2 μg/mL, 250 μL using an acetate buffer (pH 5.5), and immobilization was performed while flowing at 30 μL/min. The reaction was stopped when the immobilization level corresponded to 200 RU to 300 RU. Thereafter, deactivation was performed using ethanolamine at 30 μL/min, 300 sec. […] Sample dilution was performed using 1×PBST (pH 7.4) or 1×PBST (pH 6.0) buffer depending on the analysis pH. In the sample analysis conditions, association was carried out by reaction at 50 μL/min, 200 sec, and dissociation was carried out by reaction at 50 μL/min, 600 sec. Thereafter, reaction was carried out using a glycine buffer (pH 2.0) at 100 μL/min, 18 sec to perform regeneration. For kinetic analysis, samples were prepared and reacted once in three cells to which shFcRn was immobilized. Then three kinetic values were obtained, and then an average KD value was measured. When analyzing reaction signals, interspot-referencing and signals in which only buffer was analyzed were used for a double-referencing.

Test [2] deals with T2, hFcRn on hFcRn-expressing HEK293 cells (human, UniProt P55899 24-365; P61769 21-119).
T2 construct: whole, on cells; also called hFcRn HEK293
T2 sequence (P55899 24-365 limits assumed, chain 1 of 2): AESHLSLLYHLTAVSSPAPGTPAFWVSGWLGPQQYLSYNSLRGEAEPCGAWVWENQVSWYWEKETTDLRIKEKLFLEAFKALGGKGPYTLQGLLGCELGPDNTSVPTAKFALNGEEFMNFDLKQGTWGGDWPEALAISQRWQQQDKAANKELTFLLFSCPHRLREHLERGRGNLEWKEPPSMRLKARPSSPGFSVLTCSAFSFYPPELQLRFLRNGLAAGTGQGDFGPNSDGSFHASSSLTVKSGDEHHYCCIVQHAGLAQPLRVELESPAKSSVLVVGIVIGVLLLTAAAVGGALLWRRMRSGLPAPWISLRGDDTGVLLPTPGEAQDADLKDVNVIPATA
T2 sequence (P61769 21-119 limits assumed, chain 2 of 2): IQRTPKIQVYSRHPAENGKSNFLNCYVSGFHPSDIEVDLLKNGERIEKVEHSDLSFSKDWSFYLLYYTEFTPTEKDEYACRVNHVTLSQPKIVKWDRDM
Nature of the test: FACS on hFcRn HEK293 cells, 10 nM antibody, pH 6.0.
Experimental: (§3) The analysis of hFcRn binding using FACS was carried out under two conditions of pH 6.0 and pH 7.4. hFcRn-expressing 1TEK293 (hFcRn HEK293) cells were diluted with the reaction buffer (0.0500 BSA in PBS, pH 6.0 or pH 7.4) and prepared in duplicate in a 96 well plate at 1×10⁵ cells for each sample. In addition, each antibody sample was diluted with the reaction buffer to 10 nM, and then put into a 96 well plate, and incubated at 4° C. for 90 minutes. Thereafter, the plate was centrifuged to remove the supernatant, and then Alexa488-goat anti-hIgG Ab (1:200) was added thereto, and again incubated at 4° C. for 90 minutes. After the reaction was completed, it was centrifuged to remove the supernatant, and 200 μL of the reaction buffer was added to resuspend the cell pellet, and then the MFI value was measured in a FACS instrument.

Test [3] addresses T2, hFcRn on hFcRn-expressing HEK293 cells. Nature of the test: FACS on hFcRn HEK293 cells, 10 nM antibody, pH 7.4.
Experimental: as §3
Test [4] concerns the target T1, shFcRn (soluble human FcRn). Nature of the test: SPR, shFcRn immobilized on chip, antibody as analyte, pH 7.4.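 Also: kinetics fitted with a 1:1 Langmuir model, association 200 s and dissociation 600 s in PBST, double-referenced against buffer-only and interspot signals, values averaged over repeated runs.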
Experimental: as §1, §2
Test [5] addresses T2, hFcRn on hFcRn-expressing HEK293 cells. The test can be described thus: FACS on hFcRn HEK293 cells, pH 6.0; head prints 'FACS binding (EC50, nM)', taken as blocking of competitor Alexa488-hIgG1 (Example 4.5).
Experimental: 1×10⁷ hFcRn HEK293 cells were seeded into a T75 flask and cultured for 24 hours. After culturing, the cells were removed and placed in a 96 well plate at 1×10⁵ cells for each sample in duplicate. […] After the reaction was completed, it was centrifuged to remove the supernatant. 200 μL of the reaction buffer was added to resuspend the cell pellet, and then the MFI value was measured in a FACS instrument.
Test [6] deals with T1, shFcRn (soluble human FcRn). Nature of the test: SPR, shFcRn immobilized on chip, antibody as analyte, pH 6.0.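 Also: kinetics fitted with a 1:1 Langmuir model, association 200 s and dissociation 600 s, samples diluted in PBST, double-referenced signals, values averaged across three shFcRn-coated cells.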
Experimental: as §1, §2
For test [7] the target is unchanged. Nature of the test: SPR, hFcRn immobilized on chip, pH 6.0.
Experimental: as §1, §2

T1 sequence (P55899 24-297 limits assumed, chain 1 of 2): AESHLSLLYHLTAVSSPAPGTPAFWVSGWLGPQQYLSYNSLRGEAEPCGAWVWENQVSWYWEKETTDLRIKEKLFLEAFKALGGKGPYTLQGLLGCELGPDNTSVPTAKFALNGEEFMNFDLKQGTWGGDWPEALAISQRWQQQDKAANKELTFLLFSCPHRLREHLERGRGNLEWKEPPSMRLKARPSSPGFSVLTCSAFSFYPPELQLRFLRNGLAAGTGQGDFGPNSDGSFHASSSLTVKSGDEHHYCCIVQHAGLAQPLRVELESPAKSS
T1 sequence (P61769 21-119 limits assumed, chain 2 of 2): as the sequence (P61769 21-119 limits assumed, chain 2 of 2) above

B1: HL161AN variant No. 3 (LC:N25S, HC:Q82S) (antibody, human IgG1, V domains shown)
VL: SYVLTQPPSVSVAPGQTARITCGGSNIGSTSVHWYQQKPGQAPVLVVHDDSDRPSGIPERFSGSNSGNTATLTISRVEAGDEADYYCQVRDSSSDHVIFGGGTKLTVLGQPKAAPSVTL
VH: EVQLLESGGGLVQPGGSLRLSCAASEFTFGSCVMTWVRQAPGKGLEWVSVISGSGGSTYYADSVKGRFTISRDNSKNTLYLSMNSLRAEDTAVYYCAKTPWWLRSPFFDYWGQGTLVTVSS
notes: Variable domains only
As to B1, the Kd came out at 210 pM in test [1], 199 pM in test [4] and 145 pM in test [6]. Moreover, the values for the MFI in test [2] and in test [3] were 2440 MFI and 6240 MFI, respectively. Further, the EC50 in test [5] came out at 1400 pM.

B2: HL161AN variant No. 14 (LC:N25Q, HC:Q82S) (antibody, human IgG1, V domains shown)
VL: SYVLTQPPSVSVAPGQTARITCGGQNIGSTSVHWYQQKPGQAPVLVVHDDSDRPSGIPERFSGSNSGNTATLTISRVEAGDEADYYCQVRDSSSDHVIFGGGTKLTVLGQPKAAPSVTL
VH: EVQLLESGGGLVQPGGSLRLSCAASEFTFGSCVMTWVRQAPGKGLEWVSVISGSGGSTYYADSVKGRFTISRDNSKNTLYLSMNSLRAEDTAVYYCAKTPWWLRSPFFDYWGQGTLVTVSS
notes: Variable domains only
With B2, the Kd in test [1] is 350 pM; in test [4] it was 283 pM; in test [6] it was 208 pM; in test [7], 200 pM. Also, the MFI came out at 2590 MFI in test [2] and 6490 MFI in test [3]. Further, the koff in test [4] was determined as 0.000551 s⁻¹; in test [6], 0.000558 s⁻¹. For the same molecule, the kon in test [4] is 1.95e+06 M⁻¹ s⁻¹; in test [6] it was 2.68e+06 M⁻¹ s⁻¹. The molecule also had an EC50 in test [5] of 1290 pM.

B3: HL161AN variant No. 10 (LC:N25S, HC:C32Y Q82T) (antibody, human IgG1, V domains shown)
VL: SYVLTQPPSVSVAPGQTARITCGGSNIGSTSVHWYQQKPGQAPVLVVHDDSDRPSGIPERFSGSNSGNTATLTISRVEAGDEADYYCQVRDSSSDHVIFGGGTKLTVLGQPKAAPSVTL
VH: EVQLLESGGGLVQPGGSLRLSCAASEFTFGSYVMTWVRQAPGKGLEWVSVISGSGGSTYYADSVKGRFTISRDNSKNTLYLTMNSLRAEDTAVYYCAKTPWWLRSPFFDYWGQGTLVTVSS
notes: Variable domains only
As for B3, the equilibrium dissociation constant (Kd) in test [1] amounted to 360 pM; in test [4], 256 pM; in test [6] it was 205 pM; in test [7], 150 pM. Besides, the MFI in test [2] was determined as 2580 MFI; in test [3] it was 6660 MFI. Besides, the dissociation rate constant (koff) stood at 0.000494 s⁻¹ in test [4] and 0.000573 s⁻¹ in test [6]. The kon in test [4] stood at 1.93e+06 M⁻¹ s⁻¹; in test [6] it was 2.8e+06 M⁻¹ s⁻¹. The molecule further came in with an EC50 in test [5] of 1370 pM.

B4: HL161AN variant No. 9 (LC:N25S, HC:C32Y Q82S) (antibody, human IgG1, V domains shown)
VL: SYVLTQPPSVSVAPGQTARITCGGSNIGSTSVHWYQQKPGQAPVLVVHDDSDRPSGIPERFSGSNSGNTATLTISRVEAGDEADYYCQVRDSSSDHVIFGGGTKLTVLGQPKAAPSVTL
VH: EVQLLESGGGLVQPGGSLRLSCAASEFTFGSYVMTWVRQAPGKGLEWVSVISGSGGSTYYADSVKGRFTISRDNSKNTLYLSMNSLRAEDTAVYYCAKTPWWLRSPFFDYWGQGTLVTVSS
notes: Variable domains only
With B4, the MFI in test [2] came out at 2660 MFI; in test [3], 6750 MFI. Further, the figures for the Kd in test [4], in test [6] and in test [7] were 245 pM, 177 pM and 160 pM, respectively. The same molecule had an EC50 in test [5] of 1430 pM.

B5: HL161AN variant No. 4 (LC:N25S, HC:Q82T) (antibody, human IgG1, V domains shown)
VL: SYVLTQPPSVSVAPGQTARITCGGSNIGSTSVHWYQQKPGQAPVLVVHDDSDRPSGIPERFSGSNSGNTATLTISRVEAGDEADYYCQVRDSSSDHVIFGGGTKLTVLGQPKAAPSVTL
VH: EVQLLESGGGLVQPGGSLRLSCAASEFTFGSCVMTWVRQAPGKGLEWVSVISGSGGSTYYADSVKGRFTISRDNSKNTLYLTMNSLRAEDTAVYYCAKTPWWLRSPFFDYWGQGTLVTVSS
notes: Variable domains only
Consider B5, for which the Kd was 270 pM in test [1], 240 pM in test [4] and 156 pM in test [6]. Moreover, the MFI is 2690 MFI in test [2] and 6300 MFI in test [3]. In addition, the EC50 in test [5] worked out at 1470 pM.

B6: HL161AN variant No. 16 (LC:N25Q, HC:Q82E) (antibody, human IgG1, V domains shown)
VL: SYVLTQPPSVSVAPGQTARITCGGQNIGSTSVHWYQQKPGQAPVLVVHDDSDRPSGIPERFSGSNSGNTATLTISRVEAGDEADYYCQVRDSSSDHVIFGGGTKLTVLGQPKAAPSVTL
VH: EVQLLESGGGLVQPGGSLRLSCAASEFTFGSCVMTWVRQAPGKGLEWVSVISGSGGSTYYADSVKGRFTISRDNSKNTLYLEMNSLRAEDTAVYYCAKTPWWLRSPFFDYWGQGTLVTVSS
notes: Variable domains only
Consider B6, for which the Kd stood at 430 pM in test [1], 272 pM in test [4], 271 pM in test [6] and 330 pM in test [7]. Also, the MFI came out at 2540 MFI in test [2] and 6210 MFI in test [3]. For the same molecule, the results for the koff in test [4] and in test [6] were 0.000504 s⁻¹ and 0.000556 s⁻¹, respectively. Besides, the results for the kon in test [4] and in test [6] were 1.86e+06 M⁻¹ s⁻¹ and 2.05e+06 M⁻¹ s⁻¹, respectively. The midpoint of the response in test [5], the EC50, lay at 1740 pM.

B7: HL161AN variant No. 5 (LC:N25S, HC:Q82E) (antibody, human IgG1, V domains shown)
VL: SYVLTQPPSVSVAPGQTARITCGGSNIGSTSVHWYQQKPGQAPVLVVHDDSDRPSGIPERFSGSNSGNTATLTISRVEAGDEADYYCQVRDSSSDHVIFGGGTKLTVLGQPKAAPSVTL
VH: EVQLLESGGGLVQPGGSLRLSCAASEFTFGSCVMTWVRQAPGKGLEWVSVISGSGGSTYYADSVKGRFTISRDNSKNTLYLEMNSLRAEDTAVYYCAKTPWWLRSPFFDYWGQGTLVTVSS
notes: Variable domains only
In the case of B7, the Kd in test [1] worked out at 670 pM; in test [4] it was 637 pM; in test [6], 229 pM; in test [7], 160 pM. Besides, the MFI is 2570 MFI in test [2] and 6350 MFI in test [3]. The dissociation rate constant (koff) in test [4] amounted to 0.000743 s⁻¹; in test [6], 0.000563 s⁻¹. Moreover, the results for the kon in test [4] and in test [6] were 1.17e+06 M⁻¹ s⁻¹ and 2.46e+06 M⁻¹ s⁻¹, respectively. Moreover, a half-maximal response in test [5] (EC50) required 1460 pM.

B8: HL161AN variant No. 15 (LC:N25Q, HC:Q82T) (antibody, human IgG1, V domains shown)
VL: SYVLTQPPSVSVAPGQTARITCGGQNIGSTSVHWYQQKPGQAPVLVVHDDSDRPSGIPERFSGSNSGNTATLTISRVEAGDEADYYCQVRDSSSDHVIFGGGTKLTVLGQPKAAPSVTL
VH: EVQLLESGGGLVQPGGSLRLSCAASEFTFGSCVMTWVRQAPGKGLEWVSVISGSGGSTYYADSVKGRFTISRDNSKNTLYLTMNSLRAEDTAVYYCAKTPWWLRSPFFDYWGQGTLVTVSS
notes: Variable domains only
For the molecule B8, the Kd in test [1] was found to be 360 pM; in test [4] it was 279 pM; in test [6], 265 pM; in test [7], 330 pM. Besides, the MFI in test [2] is 2570 MFI; in test [3] it was 6540 MFI. Also, the koff in test [4] is 0.000513 s⁻¹; in test [6], 0.000601 s⁻¹. Moreover, the kon in test [4] was determined as 1.84e+06 M⁻¹ s⁻¹; in test [6], 2.27e+06 M⁻¹ s⁻¹. Also, a half-maximal effect in test [5] (EC50) was put at 1100 pM.

B9: HL161AN variant No. 7 (LC:N25S, HC:C32S Q82T) (antibody, human IgG1, V domains shown)
VL: SYVLTQPPSVSVAPGQTARITCGGSNIGSTSVHWYQQKPGQAPVLVVHDDSDRPSGIPERFSGSNSGNTATLTISRVEAGDEADYYCQVRDSSSDHVIFGGGTKLTVLGQPKAAPSVTL
VH: EVQLLESGGGLVQPGGSLRLSCAASEFTFGSSVMTWVRQAPGKGLEWVSVISGSGGSTYYADSVKGRFTISRDNSKNTLYLTMNSLRAEDTAVYYCAKTPWWLRSPFFDYWGQGTLVTVSS
notes: Variable domains only
Regarding B9, the results for the dissociation constant Kd in test [1], in test [4] and in test [6] were 210 pM, 187 pM and 152 pM, respectively. For the same molecule, the figures for the MFI in test [2] and in test [3] were 2550 MFI and 6620 MFI, respectively. Besides, the EC50 in test [5] was determined as 1280 pM.

B10: HL161AN variant No. 17 (LC:N25Q, HC:C32S Q82S) (antibody, human IgG1, V domains shown)
VL: SYVLTQPPSVSVAPGQTARITCGGQNIGSTSVHWYQQKPGQAPVLVVHDDSDRPSGIPERFSGSNSGNTATLTISRVEAGDEADYYCQVRDSSSDHVIFGGGTKLTVLGQPKAAPSVTL
VH: EVQLLESGGGLVQPGGSLRLSCAASEFTFGSSVMTWVRQAPGKGLEWVSVISGSGGSTYYADSVKGRFTISRDNSKNTLYLSMNSLRAEDTAVYYCAKTPWWLRSPFFDYWGQGTLVTVSS
notes: Variable domains only
For B10, the Kd in test [1] came out at 300 pM; in test [4], 249 pM; in test [6], 169 pM; in test [7], 220 pM. Also, the MFI came out at 2640 MFI in test [2] and 6750 MFI in test [3]. Besides, the koff was 0.000566 s⁻¹ in test [4] and 0.000538 s⁻¹ in test [6]. Further, the kon in test [4] was 2.27e+06 M⁻¹ s⁻¹; in test [6], 3.19e+06 M⁻¹ s⁻¹. It took 1300 pM to reach a half-maximal effect in test [5] (EC50).

B11: HL161AN variant No. 6 (LC:N25S, HC:C32S Q82S) (antibody, human IgG1, V domains shown)
VL: SYVLTQPPSVSVAPGQTARITCGGSNIGSTSVHWYQQKPGQAPVLVVHDDSDRPSGIPERFSGSNSGNTATLTISRVEAGDEADYYCQVRDSSSDHVIFGGGTKLTVLGQPKAAPSVTL
VH: EVQLLESGGGLVQPGGSLRLSCAASEFTFGSSVMTWVRQAPGKGLEWVSVISGSGGSTYYADSVKGRFTISRDNSKNTLYLSMNSLRAEDTAVYYCAKTPWWLRSPFFDYWGQGTLVTVSS
notes: Variable domains only
With B11, the figures for the MFI in test [2] and in test [3] were 2650 MFI and 6920 MFI, respectively. Moreover, a half-maximal effect in test [5] (EC50) was put at 1310 pM. The Kd is 163 pM in test [6] and 130 pM in test [7].
